{"source": "patent US20090035321A1", "about": "“Intercellular adhesion molecules and their binding ligands” (Boehringer Ingelheim Pharmaceuticals, Inc., published 2009)", "key": {"[1]": {"target": "ICAM-1 N269QSQI/IQAEQ (human) (UniProt P05362)", "assay": "COS cells on LFA-1 coated plastic"}, "[2]": {"target": "ICAM-1 N240DS/KNA (human, UniProt P05362)", "assay": "COS cells on LFA-1 coated plastic"}, "[3]": {"target": "ICAM-1 S3VS/AGL (human, UniProt P05362)", "assay": "COS cells on LFA-1 coated plastic"}, "[4]": {"target": "ICAM-1 S3/T (human, UniProt P05362)", "assay": "COS cells on LFA-1 coated plastic"}, "[5]": {"target": "ICAM-1 R13G/EA (human, UniProt P05362)", "assay": "COS cells on LFA-1 coated plastic"}, "[6]": {"target": "ICAM-1 R13/E (human, UniProt P05362)", "assay": "COS cells on LFA-1 coated plastic"}, "[7]": {"target": "ICAM-1 R13/Q (human, UniProt P05362)", "assay": "COS cells on LFA-1 coated plastic"}, "[8]": {"target": "ICAM-1 G15/SA (human, UniProt P05362)", "assay": "COS cells on LFA-1 coated plastic"}, "[9]": {"target": "ICAM-1 T20CS/ACT (human, UniProt P05362)", "assay": "COS cells on LFA-1 coated plastic"}, "[10]": {"target": "ICAM-1 D26QPK/ALPE (human, UniProt P05362)", "assay": "COS cells on LFA-1 coated plastic"}, "[11]": {"target": "ICAM-1 K40/A (human, UniProt P05362)", "assay": "COS cells on LFA-1 coated plastic"}, "[12]": {"target": "ICAM-1 N48/H (human, UniProt P05362)", "assay": "COS cells on LFA-1 coated plastic"}, "[13]": {"target": "ICAM-1 N56V/HM (human, UniProt P05362)", "assay": "COS cells on LFA-1 coated plastic"}, "[14]": {"target": "ICAM-1 Q58/H (human, UniProt P05362)", "assay": "COS cells on LFA-1 coated plastic"}, "[15]": {"target": "ICAM-1 E59/K (human, UniProt P05362)", "assay": "COS cells on LFA-1 coated plastic"}, "[16]": {"target": "ICAM-1 E59/Q (human, UniProt P05362)", "assay": "COS cells on LFA-1 coated plastic"}, "[17]": {"target": "ICAM-1 D60S/KL (human, UniProt P05362)", "assay": "COS cells on LFA-1 coated plastic"}, "[18]": {"target": "ICAM-1 D60/N (human, UniProt P05362)", "assay": "COS cells on LFA-1 coated plastic"}, "[19]": {"target": "ICAM-1 D71/E (human, UniProt P05362)", "assay": "COS cells on LFA-1 coated plastic"}, "[20]": {"target": "T1, ICAM-1 R88V/EA (human, UniProt P05362)", "assay": "COS cells on LFA-1 coated plastic"}, "[21]": {"target": "ICAM-1 V136GE/GVK (human, UniProt P05362)", "assay": "COS cells on LFA-1 coated plastic"}, "[22]": {"target": "T2, ICAM-1 R149RD/EEG (human, UniProt P05362)", "assay": "COS cells on LFA-1 coated plastic"}, "[23]": {"target": "ICAM-1 Y476/TAG (human) (UniProt P05362)", "assay": "COS cell adhesion to purified LFA-1, no antibody"}, "[24]": {"target": "Intercellular Adhesion Molecule-1 (ICAM-1), wild type, on the cell surface (human) (UniProt P05362)", "assay": "COS cell adhesion to purified LFA-1, no antibody"}, "[25]": {"target": "ICAM-1 R13/K (human, UniProt P05362)", "assay": "35S-HRV14 on COS cells"}, "[26]": {"target": "ICAM-1 Q27/L (human, UniProt P05362)", "assay": "35S-HRV14 on COS cells"}, "[27]": {"target": "ICAM-1 Q58EDS/AKDI (human, UniProt P05362)", "assay": "35S-HRV14 on COS cells"}, "[28]": {"target": "T1, ICAM-1 R88V/EA", "assay": "35S-HRV14 on COS cells"}, "[29]": {"target": "ICAM-1 E127/R (human, UniProt P05362)", "assay": "35S-HRV14 on COS cells"}, "[30]": {"target": "T2, ICAM-1 R149RD/EEG", "assay": "35S-HRV14 on COS cells"}, "[31]": {"target": "ICAM-1 R166PQ/EPA (human, UniProt P05362)", "assay": "35S-HRV14 on COS cells"}, "[32]": {"target": "ICAM-1 S177/G (human, UniProt P05362)", "assay": "35S-HRV14 on COS cells"}}}
{"molecule": "purified LFA-1, bound to plastic (from UniProt P20701) (receptor)", "values": [{"measurement": "LFA-1 Binding % (% of wild type)", "setting": "[1]", "result": 101}, {"measurement": "LFA-1 Binding % (% of wild type)", "setting": "[2]", "result": 147}, {"measurement": "LFA-1 Binding % (% of wild type)", "setting": "[3]", "result": 18}, {"measurement": "LFA-1 Binding % (% of wild type)", "setting": "[4]", "result": 149}, {"measurement": "LFA-1 Binding % (% of wild type)", "setting": "[5]", "result": 2}, {"measurement": "LFA-1 Binding % (% of wild type)", "setting": "[6]", "result": 1}, {"measurement": "LFA-1 Binding % (% of wild type)", "setting": "[7]", "result": 78}, {"measurement": "LFA-1 Binding % (% of wild type)", "setting": "[8]", "result": 120}, {"measurement": "LFA-1 Binding % (% of wild type)", "setting": "[9]", "result": 91}, {"measurement": "LFA-1 Binding % (% of wild type)", "setting": "[10]", "result": 30}, {"measurement": "LFA-1 Binding % (% of wild type)", "setting": "[11]", "result": 124}, {"measurement": "LFA-1 Binding % (% of wild type)", "setting": "[12]", "result": 88}, {"measurement": "LFA-1 Binding % (% of wild type)", "setting": "[13]", "result": 121}, {"measurement": "LFA-1 Binding % (% of wild type)", "setting": "[14]", "result": 109}, {"measurement": "LFA-1 Binding % (% of wild type)", "setting": "[15]", "result": 134}, {"measurement": "LFA-1 Binding % (% of wild type)", "setting": "[16]", "result": 84}, {"measurement": "LFA-1 Binding % (% of wild type)", "setting": "[17]", "result": 1}, {"measurement": "LFA-1 Binding % (% of wild type)", "setting": "[18]", "result": 92}, {"measurement": "LFA-1 Binding % (% of wild type)", "setting": "[19]", "result": 118}, {"measurement": "LFA-1 Binding % (% of wild type)", "setting": "[20]", "result": 95}, {"measurement": "LFA-1 Binding % (% of wild type)", "setting": "[21]", "result": 92}, {"measurement": "LFA-1 Binding % (% of wild type)", "setting": "[22]", "result": 81}, {"measurement": "% of Cells Expressing ICAM-1 that Bind LFA-1", "setting": "[23]", "result": 20, "unit": "%"}, {"measurement": "% of Cells Expressing ICAM-1 that Bind LFA-1", "setting": "[24]", "result": 20, "unit": "%"}]}
{"molecule": "human rhinovirus 14 (HRV14) (other, [35S]-Met labeled) GAQVSTQKSGSHENQNILTNGSNQTFTVINYYKDAASTSSAGQSLSMDPSKFTEPVKDLMLKGAPALNSPNVEACGYSDRVQQITLGNSTITTQEAANAVVCYAEWPEYLPDVDASDVNKTSKPDTSVCRFYTLDSKTWTTGSKGWCWKLPDALKDMGVFGQNMFFHSLGRSGYTVHVQCNATKFHSGCLLVVVIPEHQLASHEGGNVSVKYTFTHPGERGIDLSSANEVGGPVKDVIYNMNGTLLGNLLIFPHQFINLRTNNTATIVIPYINSVPIDSMTRHNNVSLMVIPIAPLTVPTGATPSLPITVTIAPMCTEFSGIRSKSIVPQGLPTTTLPGSGQFLTTDDRQSPSALPNYEPTPRIHIPGKVHNLLEIIQVDTLIPMNNTHTKDEVNSYLIPLNANRQNEQVFGTNLFIGDGVFKTTLLGEIVQYYTHWSGSLRFSLMYTGPALSSAKLILAYTPPGARGPQDRREAMLGTHVVWDIGLQSTIVMTIPWTSGVQFRYTDPDTYTSAGFLSCWYQTSLILPPETTGQVYLLSFISACPDFKLRLMKDTQTISQTVALTEGLGDELEEVIVEKTKQTVASISSGPKHTQKVPILTANETGATMPVLPSDSIETRTTYMHFNGSETDVECFLGRAACVHVTEIQNKDATGIDNHREAKLFNDWKINLSSLVQLRKKLELFTYVRFDSEYTILATASQPDSANYSSNLVVQAMYVPPGAPNPKEWDDYTWQSASNPSVFFKVGDTSRFSVPYVGLASAYNCFYDGYSHDDAETQYGITVLNHMGSMAFRIVNEHDEHKTLVKIRVYHRAKHVEAWIPRAPRALPYTSIGRTNYPKNTEPVIKKRKGDIKSY", "values": [{"measurement": "HRV Binding %", "setting": "[25]", "result": "123 % of wild type"}, {"measurement": "HRV Binding %", "setting": "[26]", "result": "57 % of wild type"}, {"measurement": "HRV Binding %", "setting": "[27]", "result": "0 % of wild type"}, {"measurement": "HRV Binding %", "setting": "[28]", "result": "152 % of wild type"}, {"measurement": "HRV Binding %", "setting": "[29]", "result": "131 % of wild type"}, {"measurement": "HRV Binding %", "setting": "[30]", "result": "139 % of wild type"}, {"measurement": "HRV Binding %", "setting": "[31]", "result": "25 % of wild type"}, {"measurement": "HRV Binding %", "setting": "[32]", "result": "66 % of wild type"}]}
